Test [1] deals with T1, human plasma fibronectin (human, UniProt P02751-8 32-2296, limits assumed). In words: cell-based or functional assay.
In test [2] the target is T1, human plasma fibronectin. Description: competition ELISA, peptide 6 titrated 0-160 µM against FN binding to immobilized CD9. On the procedure:
FIG. 2C illustrates the effect of titrations of Peptide 6 (0-160 μM) on FN-CD9 binding was evaluated. […] The ability of CD9-CHO-B2 cells to adhere to FN was compared with Mock-CHOB2 cells. CD9-CHO-B2 cells had increased adhesion to FN in the absence of integrin α5β1 expression when compared to Mock-CHO-B2 cells. […] A scrambled control (peptide 6S) had no significant effect on CD9-CHO-B2 cell adhesion (p>0.005).
All incubation periods for the CD9/FN binding ELISA lasted two hours at RT unless otherwise indicated. Immulon I (Dynatech) microtiter plate wells were coated with CD9 (2 μg/ml), His₆-rCD9 (2 μg/ml), BSA (10 μg/ml), or peptide (10 μM) in Buffer A. After one wash with Buffer B, plates were blocked with Blocking Buffer 1.1% BSA was included in steps from ligand overlay to addition of mAb conjugate to minimize non-specific binding. Titrations of human plasma FN in Buffer B were added to plates either alone, or in the case of competition ELISAs, with 0-160 μM synthetic peptide. Plates were washed three times with ELISA Buffer B, followed by incubation with a 1/1000 dilution of rabbit anti-FN antibody. After two washes with Buffer B and one wash with Buffer C, plates were incubated with 1/500 antirabbit IgG alkaline phosphatase in Buffer C for one hour at RT. After four washes with Buffer C, 1 mg/mlp-nitrophenyl phosphate substrate was added and the absorbance at 405 nm was recorded.
For orientation: ELISA stands for enzyme-linked immunosorbent assay.

We go through four molecules from patent US20040136985A1 (published 2004).

T1 sequence (P02751 other isoform, or with tags, fused parts or gaps limits assumed): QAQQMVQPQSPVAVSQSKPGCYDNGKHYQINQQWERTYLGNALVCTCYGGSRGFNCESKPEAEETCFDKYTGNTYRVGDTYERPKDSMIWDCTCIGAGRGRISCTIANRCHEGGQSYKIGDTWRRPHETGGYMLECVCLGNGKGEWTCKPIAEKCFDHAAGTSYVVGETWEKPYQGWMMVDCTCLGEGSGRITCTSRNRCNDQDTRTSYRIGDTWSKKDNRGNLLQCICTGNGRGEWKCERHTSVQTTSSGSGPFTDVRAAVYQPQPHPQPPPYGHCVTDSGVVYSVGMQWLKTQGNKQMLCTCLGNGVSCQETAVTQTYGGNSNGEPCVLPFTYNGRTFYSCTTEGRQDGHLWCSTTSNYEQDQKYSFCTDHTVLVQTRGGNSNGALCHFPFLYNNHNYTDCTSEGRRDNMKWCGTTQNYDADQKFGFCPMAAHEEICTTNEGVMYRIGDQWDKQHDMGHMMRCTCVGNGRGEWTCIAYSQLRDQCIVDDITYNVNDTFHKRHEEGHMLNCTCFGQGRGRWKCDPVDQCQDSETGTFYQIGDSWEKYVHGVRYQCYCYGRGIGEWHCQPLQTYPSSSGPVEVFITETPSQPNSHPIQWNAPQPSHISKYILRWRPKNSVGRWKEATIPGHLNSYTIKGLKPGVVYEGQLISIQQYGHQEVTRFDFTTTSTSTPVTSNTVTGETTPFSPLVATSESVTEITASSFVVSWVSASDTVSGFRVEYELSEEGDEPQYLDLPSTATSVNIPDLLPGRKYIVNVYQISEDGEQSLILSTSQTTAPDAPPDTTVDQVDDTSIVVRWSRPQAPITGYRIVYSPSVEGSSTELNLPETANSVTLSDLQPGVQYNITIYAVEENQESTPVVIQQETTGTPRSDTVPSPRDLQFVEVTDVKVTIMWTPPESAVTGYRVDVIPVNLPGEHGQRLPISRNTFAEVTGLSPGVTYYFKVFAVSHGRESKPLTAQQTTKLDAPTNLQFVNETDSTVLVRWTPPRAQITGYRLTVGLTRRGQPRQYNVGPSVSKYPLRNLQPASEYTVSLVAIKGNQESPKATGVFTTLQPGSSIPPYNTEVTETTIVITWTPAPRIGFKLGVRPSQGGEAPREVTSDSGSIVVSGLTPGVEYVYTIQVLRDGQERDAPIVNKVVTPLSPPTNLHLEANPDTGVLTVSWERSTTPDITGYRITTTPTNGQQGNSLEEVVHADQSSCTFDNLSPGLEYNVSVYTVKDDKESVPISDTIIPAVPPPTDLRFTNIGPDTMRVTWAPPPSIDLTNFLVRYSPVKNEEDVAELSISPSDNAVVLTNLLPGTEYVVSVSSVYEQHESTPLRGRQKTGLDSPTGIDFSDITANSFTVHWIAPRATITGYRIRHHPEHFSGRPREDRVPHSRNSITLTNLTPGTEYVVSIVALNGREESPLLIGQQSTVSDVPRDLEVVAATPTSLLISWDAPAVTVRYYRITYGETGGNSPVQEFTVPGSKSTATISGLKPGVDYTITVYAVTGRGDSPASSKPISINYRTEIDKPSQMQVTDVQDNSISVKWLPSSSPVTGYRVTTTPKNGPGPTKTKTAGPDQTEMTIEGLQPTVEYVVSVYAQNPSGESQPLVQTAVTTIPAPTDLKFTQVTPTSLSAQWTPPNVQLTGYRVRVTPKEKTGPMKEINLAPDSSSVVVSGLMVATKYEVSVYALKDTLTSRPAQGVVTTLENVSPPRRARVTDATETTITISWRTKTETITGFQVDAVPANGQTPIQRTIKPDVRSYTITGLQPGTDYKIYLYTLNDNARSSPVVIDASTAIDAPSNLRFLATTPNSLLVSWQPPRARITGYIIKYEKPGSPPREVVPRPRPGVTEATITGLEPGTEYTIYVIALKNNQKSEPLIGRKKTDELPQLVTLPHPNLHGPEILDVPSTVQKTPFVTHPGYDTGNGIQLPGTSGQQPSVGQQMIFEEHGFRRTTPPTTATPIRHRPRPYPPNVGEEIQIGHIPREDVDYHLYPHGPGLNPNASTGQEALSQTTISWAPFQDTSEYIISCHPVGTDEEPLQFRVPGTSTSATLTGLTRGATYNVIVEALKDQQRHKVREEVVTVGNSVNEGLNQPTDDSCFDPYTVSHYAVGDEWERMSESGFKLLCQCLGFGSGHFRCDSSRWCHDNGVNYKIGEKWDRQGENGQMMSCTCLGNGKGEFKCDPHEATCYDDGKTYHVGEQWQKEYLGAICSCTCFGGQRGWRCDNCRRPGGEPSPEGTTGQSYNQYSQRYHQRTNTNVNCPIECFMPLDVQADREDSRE

B1: CD9 Δ133-192 (receptor)
chain: MPVKGGTKCIKYLLFGFNFIFWLAGIAVLAIGLWLRFDSQTKSIFEQETNNNNSSFYTGVYILIGAGALMMLVGFLGCCGAVQESQCMLGLFFGFLLVIFAIEIAAAIWGYSHKDEVIKEVQEFYKDTYNKLFHIIGAVGIGIAVVMIFGMIFSMILCCAIRRNREMV
Turning to B1, the “reduction in haptotactic motility to FN” value in the test with human plasma fibronectin [1] turned out to be 64%.

B2: CD9 Δ173-192 (receptor)
chain: MPVKGGTKCIKYLLFGFNFIFWLAGIAVLAIGLWLRFDSQTKSIFEQETNNNNSSFYTGVYILIGAGALMMLVGFLGCCGAVQESQCMLGLFFGFLLVIFAIEIAAAIWGYSHKDEVIKEVQEFYKDTYNKLKTKDEPQRETLKAIHYALNCCGLAGGVEQFISDICPKKDVFHIIGAVGIGIAVVMIFGMIFSMILCCAIRRNREMV
Consider B2, for which the “reduction in haptotactic motility to FN” value with human plasma fibronectin [1] came out at 45%.

B3: CD9 Δ113-228 (receptor)
chain: MPVKGGTKCIKYLLFGFNFIFWLAGIAVLAIGLWLRFDSQTKSIFEQETNNNNSSFYTGVYILIGAGALMMLVGFLGCCGAVQESQCMLGLFFGFLLVIFAIEIAAAIWGYS
For B3, the “reduction in haptotactic motility to FN” value in the test with human plasma fibronectin [1] was found to be 58%.

For PKKDVLETFTVKSCPDAIKEVFDNK (Synthetic peptide of CD9 EC2) [peptide 6], the “IC50 (read off the curve)” value with human plasma fibronectin [2] was ~20 µM.
